Experimental findings from patent US20210101970A1 (Pfizer, published 2021) are described below.

For one experiment, the target named is T1, CXCR1 (human, UniProt P25024 1-350).
T1 construct: whole, on cells
T1 sequence (looked up): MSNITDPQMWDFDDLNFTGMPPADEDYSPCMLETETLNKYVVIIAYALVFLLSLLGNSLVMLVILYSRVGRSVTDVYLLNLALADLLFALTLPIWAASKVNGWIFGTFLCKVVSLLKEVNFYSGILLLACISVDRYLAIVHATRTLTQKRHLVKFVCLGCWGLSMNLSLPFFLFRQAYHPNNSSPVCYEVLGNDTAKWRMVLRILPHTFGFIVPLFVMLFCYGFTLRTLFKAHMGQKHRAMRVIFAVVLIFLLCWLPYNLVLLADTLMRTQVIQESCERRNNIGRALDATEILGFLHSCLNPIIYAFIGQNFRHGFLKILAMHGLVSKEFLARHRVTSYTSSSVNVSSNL
The experiment can be described thus: flow cytometry (GMFI) on fixed CXCR1 cells, chimeric antibody, goat anti-human PE. The procedure:
(§1) To determine the specificity of the antibodies for CXCR5, the binding of the antibodies to cells expressing other […] was assessed. Briefly, FlowCellect chemokine receptor cell lines expressing CXCR1, CXCR2, or CXCR3 (EMD Millipore, Billerica, Mass.), and Jurkats (ATCC, Manassas, Va.), which express CXCR4, were stained with 5 μg/ml or 10 μg/ml of each anti-CXCR5 chimeric antibody. The cells were then incubated with goat anti-human conjugated with PE (Southern Biotech, Birmingham, Ala.) prior to analysis by flow cytometry using a FACSVerse Analyzer (BD Biosciences, Franklin Lakes, N.J.).
Background: In flow cytometry, cells or beads pass a laser one at a time.

The target of another experiment is T2, CXCR2 (human, UniProt P25025 1-360).
T2 construct: whole, on cells
T2 sequence (looked up): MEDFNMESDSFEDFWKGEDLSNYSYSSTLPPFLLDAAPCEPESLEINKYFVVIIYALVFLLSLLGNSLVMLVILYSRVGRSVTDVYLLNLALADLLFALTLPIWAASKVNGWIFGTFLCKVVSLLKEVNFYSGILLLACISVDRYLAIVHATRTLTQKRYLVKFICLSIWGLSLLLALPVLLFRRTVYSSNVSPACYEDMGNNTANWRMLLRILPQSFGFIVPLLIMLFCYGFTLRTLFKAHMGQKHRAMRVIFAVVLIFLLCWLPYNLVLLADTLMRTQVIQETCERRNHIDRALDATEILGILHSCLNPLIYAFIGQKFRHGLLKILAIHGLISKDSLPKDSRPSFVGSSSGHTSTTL
The experiment can be described thus: flow cytometry (GMFI) on fixed CXCR2 cells, chimeric antibody, goat anti-human PE. As for the experimental part:
as §1

Another experiment concerns the target T3, CXCR4 (human, UniProt P61073 1-352).
T3 construct: whole, on cells
The experiment can be described thus: flow cytometry (GMFI) on Jurkat cells, which express CXCR4; chimeric antibody, goat anti-human PE. As for the experimental part: as §1

The target in experiment [1] is T4, human CXCR5 (human, UniProt P32302 1-372).
T4 construct: also called hCXCR5; C-X-C chemokine receptor type 5
T4 sequence: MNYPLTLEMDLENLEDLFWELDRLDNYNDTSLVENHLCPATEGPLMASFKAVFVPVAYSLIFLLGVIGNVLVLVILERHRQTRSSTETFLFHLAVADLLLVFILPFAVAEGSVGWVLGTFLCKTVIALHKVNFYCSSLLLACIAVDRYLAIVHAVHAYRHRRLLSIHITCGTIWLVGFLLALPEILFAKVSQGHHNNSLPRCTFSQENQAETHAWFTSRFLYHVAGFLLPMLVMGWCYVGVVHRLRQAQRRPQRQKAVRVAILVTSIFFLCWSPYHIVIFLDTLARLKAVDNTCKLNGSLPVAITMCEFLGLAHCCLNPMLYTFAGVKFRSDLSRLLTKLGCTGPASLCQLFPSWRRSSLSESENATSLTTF
The experiment can be described thus: flow cytometry on Raji cells, fucosylated chimeric antibody. As for the experimental part:
The fucosylated chimeric antibodies were then purified using protein A columns. The apparent affinity (cell binding EC50s) of chimeric antibody binding to Raji cells was determined by flow cytometry using a FACSVerse Analyzer (BD Bioscience, Franklin Lakes, N.J.) and are shown in Table 3.

In a further experiment the target is T5, cynomolgus monkey CXCR5 (cynomolgus monkey, UniProt P32302 1-372 (human entry)).
T5 construct: also called cynoCXCR5; NHP CXCR5
T5 chain: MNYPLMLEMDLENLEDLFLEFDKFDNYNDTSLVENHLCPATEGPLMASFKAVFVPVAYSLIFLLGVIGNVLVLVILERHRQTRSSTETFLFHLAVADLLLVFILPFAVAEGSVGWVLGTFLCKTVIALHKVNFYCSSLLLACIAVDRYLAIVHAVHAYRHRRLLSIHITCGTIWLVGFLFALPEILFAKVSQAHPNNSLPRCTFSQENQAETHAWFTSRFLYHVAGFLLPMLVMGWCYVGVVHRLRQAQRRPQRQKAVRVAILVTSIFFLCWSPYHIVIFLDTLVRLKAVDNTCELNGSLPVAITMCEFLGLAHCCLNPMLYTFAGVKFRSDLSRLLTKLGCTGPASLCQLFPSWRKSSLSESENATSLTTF
The experiment can be described thus: flow cytometry on cynoCXCR5-300.19 cells, fucosylated chimeric antibody.

Experiment [2] has as its target T4, human CXCR5. The experiment can be described thus: flow cytometry, B cells from human PBMCs (FIG. 5); comparator 2C9.
Experiment [3] addresses T4, human CXCR5. Briefly: cell-based or functional assay.

Usually EC50 stands for the concentration giving half of the maximal effect.

T3 sequence (P61073 whole entry): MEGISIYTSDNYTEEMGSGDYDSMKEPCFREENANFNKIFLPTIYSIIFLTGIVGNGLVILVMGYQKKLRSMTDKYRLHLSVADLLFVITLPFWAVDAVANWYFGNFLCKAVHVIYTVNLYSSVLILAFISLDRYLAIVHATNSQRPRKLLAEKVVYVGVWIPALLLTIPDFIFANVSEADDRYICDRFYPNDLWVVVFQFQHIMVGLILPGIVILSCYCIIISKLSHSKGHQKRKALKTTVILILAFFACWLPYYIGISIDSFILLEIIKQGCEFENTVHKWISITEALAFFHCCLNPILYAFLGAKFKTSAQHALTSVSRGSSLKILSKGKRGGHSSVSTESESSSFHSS

B1: Chimeric 11G2 (antibody, human IgG1, kappa, V domains shown)
VH: EVKLVESGGGLVQPGGSLRLSCATSGFTFTDFYMSWVRQPPGRALEWLGFIRNKANGYTTEYSASVKGRFTISRDNSQSILYLQMNTLRAGDSATYYCVRVYGSTLHYWGQGTILTVSS
VL: DVVVTQSPDSLAVSLGQRATISCRASESVEYHGTSLMHWYQQKPGQPPKLLIYAASNVESGVPARFSGSGSGTDFSLNIHPVEEGDIAMYFCQQSRKVPWTFGGGTKLEIKR
notes: mouse V regions on human IgG1/kappa; also called 11G2 (chimeric)
As for B1, the binding result with CXCR1, in the experiment with CXCR2 and in the experiment with CXCR4 was “no binding (tested: 5 or 10 µg/ml (not on the sheet))” each time. For the same molecule, the EC50 is 0.0175 nM with human CXCR5 [1] and 0.0242 nM with cynomolgus monkey CXCR5.

B2: 2C9 (reference antibody) (antibody, human IgG1, kappa, V domains shown)
VH: EVQLVESGGGLVKPGGSLRLSCAASGFTFSTNAMNWVRQAPGKGLERVARIRSKSNNYATYYADSVKDRFTISRDDSKNTLYLQMNSLKTEDTAVYYCVTMIPFAYWGQGTLVTVSS
VL: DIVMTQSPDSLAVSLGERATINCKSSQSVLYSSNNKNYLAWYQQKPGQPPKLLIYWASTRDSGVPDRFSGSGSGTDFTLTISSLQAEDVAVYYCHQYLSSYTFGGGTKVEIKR
notes: fucosylated
Take B2: the response in the experiment with human CXCR5 [2] was half-maximal at 0.0624 nM (EC50).

B3: Afucosyl humanized 11G2 154/155 (antibody, human IgG1, kappa, V domains shown)
VH: EVQLVESGGGLVQPGGSLRLSCAASGFTFTDFYMSWVRQAPGKGLEWVGFIRNKANGYTTEYSASVKGRFTISRDNAKNSLYLQMNSLRAEDTAVYYCARVYGSTLHYWGQGTLVTVSS
VL: DIQMTQSPSSLSASVGDRVTITCRASESVEYHGTSLMHWYQQKPGKAPKLLIYAASNVESGVPSRFSGSGSGTDFTLTISSLQPEDFATYYCQQSRKVPWTFGQGTKVEIKR
modifications: afucosylated Fc glycan (Asn297)
notes: also called afucosyl h11G2 XC154/XC155; afucosylated h11G2 VL XC154/VH XC155
Turning to B3, the “EC50, functional antagonism (cAMP assay)” value with human CXCR5 [3] came out at 0.961 nM.
